From paper PMC7946914, “easyCLIP analysis of RNA-protein interactions incorporating absolute quantification”
Substitutions are numbered along the chain they refer to.

How the values were obtained:
Experiment in all cases: fluorescence polarization; FP with 3' 6-FAM RNA; PCBP1 RNA diluted to 50 nM in PCBP binding buffer; buffer composition, pH and temperature not in the material
A1CF WT = biological target: T1, A1CF WT (human?, UniProt Q9NQ94 1-594); conditions: protein: recombinant; label: 3' 6-FAM; single-stranded
T1 sequence: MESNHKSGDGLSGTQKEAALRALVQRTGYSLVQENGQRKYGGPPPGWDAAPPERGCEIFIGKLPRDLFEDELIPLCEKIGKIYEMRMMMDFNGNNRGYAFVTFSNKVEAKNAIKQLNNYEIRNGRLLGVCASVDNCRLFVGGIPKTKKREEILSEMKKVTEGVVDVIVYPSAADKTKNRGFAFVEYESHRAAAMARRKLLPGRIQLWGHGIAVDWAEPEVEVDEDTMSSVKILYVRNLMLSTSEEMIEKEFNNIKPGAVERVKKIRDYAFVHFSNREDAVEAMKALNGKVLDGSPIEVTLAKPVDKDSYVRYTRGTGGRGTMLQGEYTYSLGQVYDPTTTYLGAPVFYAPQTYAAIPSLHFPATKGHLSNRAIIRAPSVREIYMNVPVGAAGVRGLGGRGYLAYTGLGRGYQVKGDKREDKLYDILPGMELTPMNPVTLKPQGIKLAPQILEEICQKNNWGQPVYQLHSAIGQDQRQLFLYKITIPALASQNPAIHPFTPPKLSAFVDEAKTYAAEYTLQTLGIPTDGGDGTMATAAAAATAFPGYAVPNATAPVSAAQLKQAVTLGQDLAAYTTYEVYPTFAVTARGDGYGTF

A1CF E34K = biological target: T2, A1CF E34K (human?, UniProt Q9NQ94 1-594, E34K); conditions: protein: recombinant; label: 3' 6-FAM; single-stranded
T2 sequence: T1 sequence with E34K

KHDRBS2 WT = biological target: T3, KHDRBS2 WT (UniProt Q5VWX1 1-349); conditions: protein: recombinant; chain copies: 2; label: 3' 6-FAM; single-stranded
T3 sequence: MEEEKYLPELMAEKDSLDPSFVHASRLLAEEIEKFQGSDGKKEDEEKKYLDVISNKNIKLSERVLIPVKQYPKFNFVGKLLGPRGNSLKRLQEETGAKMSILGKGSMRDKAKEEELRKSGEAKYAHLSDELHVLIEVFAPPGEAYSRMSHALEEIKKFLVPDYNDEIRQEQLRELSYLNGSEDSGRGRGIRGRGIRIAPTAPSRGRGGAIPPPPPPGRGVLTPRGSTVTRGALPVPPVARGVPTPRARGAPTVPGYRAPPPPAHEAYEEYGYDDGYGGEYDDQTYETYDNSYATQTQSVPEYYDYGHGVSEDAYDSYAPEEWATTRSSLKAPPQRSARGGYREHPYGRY

KHDRBS2 R168C = biological target: T4, KHDRBS2 R168C (UniProt Q5VWX1 1-349, R168C); conditions: protein: recombinant; chain copies: 2; label: 3' 6-FAM; single-stranded
T4 sequence: T3 sequence with R168C

Q: Which results are given for AUUAAAUUAAAUUU (ssRNA) [AU-rich RNA (A1CF and KHDRBS2)]?
A: binding signal (A1CF WT): 1 fold (reference); binding signal (A1CF E34K): ~2 fold affinity vs WT; binding signal (KHDRBS2 WT): 1 fold (reference); binding signal (KHDRBS2 R168C): ~2 fold affinity vs WT
